Measurements as given in PMC7489914, “Structural and functional studies of Arabidopsis thaliana legumain beta reveal isoform specific mechanisms of activation and substrate recognition” (The Journal of Biological Chemistry, 2020).

Biological target: T1, AtLEGβ catalytic AEP domain (up to the autocatalytic cleavage site Asn333) (Arabidopsis thaliana, UniProt Q39044 22-333)
T1 construct: Arabidopsis thaliana legumain isoform β, catalytic (AEP) domain up to the autocatalytic cleavage site Asn333; Removal of the His6 tag (cleavage within the TEV site) was only observed under very acidic pH conditions; also called catalytic domain; AEPβ
T1 sequence (looked up): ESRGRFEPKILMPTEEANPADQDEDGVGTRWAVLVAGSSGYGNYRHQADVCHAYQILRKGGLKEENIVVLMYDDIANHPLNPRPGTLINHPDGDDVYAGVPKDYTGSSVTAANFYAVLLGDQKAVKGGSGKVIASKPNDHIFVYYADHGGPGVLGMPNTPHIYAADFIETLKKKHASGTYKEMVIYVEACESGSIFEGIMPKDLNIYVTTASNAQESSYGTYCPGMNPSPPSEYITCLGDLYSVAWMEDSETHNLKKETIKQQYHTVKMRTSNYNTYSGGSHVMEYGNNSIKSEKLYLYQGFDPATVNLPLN
Test: SEC; pH 5.0-activated AtLEGβ on an S200 column, 20 mM citric acid pH 5.0, 100 mM NaCl; BSA as size standard
Conditions: both partners purified

- binding result: binds
B1: AtLEGβ AP-LSAM C-terminal fragment (Gln346–Ala486) (domain or fragment, Arabidopsis thaliana, UniProt Q39044 346-486, looked up)
chain: QRDADLLFLWHMYRTSEDGSRKKDDTLKELTETTRHRKHLDASVELIATILFGPTMNVLNLVREPGLPLVDDWECLKSMVRVFEEHCGSLTQYGMKHMRAFANVCNNGVSKELMEEASTAACGGYSEARYTVHPSILGYSA
notes: also called LSAM domain
